Ends that are not written are not given here. * marks the point of attachment. Biotin = O=C1N[C@H]2[C@H](CS[C@H]2CCCCC(=O)*)N1
Legend:
[1] = biological target: GST-NeDLG fusion protein (PDZ domains 1-2) (Mus musculus (Mouse)) (UniProt P70175); assay: G assay titration of biotinylated peptide on plate-bound GST-PDZ, apparent affinity from saturation fit
[2] = biological target: GST-DLG1 fusion protein (PDZ domains 1-2) (human) (UniProt Q12959); assay: as above
[3] = biological target: GST-TIP-1 PDZ domain fusion protein (Homo sapiens) (UniProt O14907); assay: G assay competition against 20 uM CD95 20-mer
[4] = biological target: GST-TIP-1 PDZ domain fusion protein (Homo sapiens) (UniProt O14907); assay: G assay competition against CD95 20-mer
[5] = biological target: GST-TIP-1 PDZ domain fusion protein (Homo sapiens) (UniProt O14907); assay: competition for TIP1 binding, reference CD95
[6] = biological target: GST-TIP-1 PDZ domain fusion protein (Homo sapiens) (UniProt O14907); assay: G assay competition against 20 uM TAX 20-mer
[7] = biological target: GST-WWP3 (MAGI-1) fusion protein (PDZ domains 1-2) (Homo sapiens) (UniProt Q96QZ7); assay: G assay format, competition against labeled DNAM-1 peptide

B1: Clasp-2 C-terminal peptide AA2L, biotinylated (peptide)
peptide: Biotin-ISGTPTSTMVHGMTSSSSVV
[1]
  Kd: 7.5 µM
[2]
  Kd: 21 µM

B2: CD95 (Fas) C-terminal peptide AA13L, biotinylated (peptide)
peptide: Biotin-KDITSDSENSNFRNEIQSLV
[1]
  Kd: 54 µM
[2]
  Kd: 54 µM

B3: 8-mer peptide corresponding to the C-terminus of TAX (peptide)
peptide: KHFRETEV
[3]
  IC50: 20 to 100 µM
[4]
  concentration that effectively blocked binding: 100 µM
[5]
  fold better competition for binding to TIP1 than CD95: 1000 fold

B4: Fas (CD95) 8-mer competitor peptide RNEIQSLV (unlabeled) (peptide)
peptide: RNEIQSLV
[6]
  IC50: 500 µM

B5: peptide corresponding to the C-terminal 8 amino acids of DNAM-1 (peptide)
peptide: SRRPKTRV
[7]
  inhibitor concentration giving at least 50% inhibition: 20 to 200 µM

Reference: patent US20050037969A1
